Assay results reported in patent publication US20090226456A1 (published 2009).

Legend:
Test in all cases: flow cytometry on transiently transfected cells
[1] = biological target: T1, DR5 on transiently transfected cells (UniProt O14763 56-440, limits assumed)
T1 construct: whole, on cells
Experimental: (§1) One million cells, in 0.1 ml of FACS buffer (PBS, 0.1% BSA, 0.1% NaN₃), were incubated with 0.1-1 microgram of protein or antibody at RT for 15 min. The cells were washed with 3 ml of FACS buffer, reacted with biotinylated primary antibody, and stained with PE-conjugated secondary antibody at RT for 15 min. Cells were then washed again, resuspended in 0.5 microgram/ml of propidium iodide, and live cells were gated and analyzed on a FACScan using the CellQuest software (BD Biosciences).

[2] = biological target: T2, CD30 on transiently transfected cells (UniProt P28908 19-595, limits assumed)
T2 construct: whole, on cells
T2 sequence (looked up): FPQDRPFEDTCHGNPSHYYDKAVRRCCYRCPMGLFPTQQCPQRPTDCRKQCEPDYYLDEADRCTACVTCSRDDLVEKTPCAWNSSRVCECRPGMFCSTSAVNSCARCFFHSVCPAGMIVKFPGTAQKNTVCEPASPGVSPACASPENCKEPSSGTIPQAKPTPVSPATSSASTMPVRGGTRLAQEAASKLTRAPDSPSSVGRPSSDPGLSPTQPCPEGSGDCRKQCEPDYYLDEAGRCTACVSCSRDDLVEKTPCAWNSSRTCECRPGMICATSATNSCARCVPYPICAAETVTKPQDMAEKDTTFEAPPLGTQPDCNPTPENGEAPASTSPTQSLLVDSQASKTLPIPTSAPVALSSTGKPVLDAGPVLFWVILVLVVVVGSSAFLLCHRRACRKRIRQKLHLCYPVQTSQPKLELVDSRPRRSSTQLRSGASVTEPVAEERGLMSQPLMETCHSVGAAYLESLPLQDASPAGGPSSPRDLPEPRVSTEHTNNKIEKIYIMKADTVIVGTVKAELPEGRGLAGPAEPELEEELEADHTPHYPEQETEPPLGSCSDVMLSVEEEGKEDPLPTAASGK
Experimental: as §1

[3] = biological target: T3, HveA on transiently transfected cells (Homo sapiens (Human), UniProt Q92956 39-283)
T3 construct: also called HVEM/TR2
T3 sequence: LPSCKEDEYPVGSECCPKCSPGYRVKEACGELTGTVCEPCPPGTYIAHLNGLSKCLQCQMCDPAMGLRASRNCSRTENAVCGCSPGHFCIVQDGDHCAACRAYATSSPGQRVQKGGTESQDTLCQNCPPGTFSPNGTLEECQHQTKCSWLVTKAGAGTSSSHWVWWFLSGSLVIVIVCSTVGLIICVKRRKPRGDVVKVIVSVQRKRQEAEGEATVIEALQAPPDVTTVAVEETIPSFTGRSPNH
Experimental: as §1

[4] = biological target: T4, DcR2 on transiently transfected cells (UniProt Q9UBN6 56-386, limits assumed)
T4 construct: whole, on cells
T4 sequence (looked up): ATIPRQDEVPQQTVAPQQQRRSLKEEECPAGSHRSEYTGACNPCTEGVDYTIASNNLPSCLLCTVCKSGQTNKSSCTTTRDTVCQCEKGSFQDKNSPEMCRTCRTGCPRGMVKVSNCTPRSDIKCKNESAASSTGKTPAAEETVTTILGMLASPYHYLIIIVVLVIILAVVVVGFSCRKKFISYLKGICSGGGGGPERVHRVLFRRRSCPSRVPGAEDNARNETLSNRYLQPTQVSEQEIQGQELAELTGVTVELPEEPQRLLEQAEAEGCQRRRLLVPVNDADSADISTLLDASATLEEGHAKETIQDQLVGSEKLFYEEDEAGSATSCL
Experimental: as §1

[5] = biological target: T5, DR4 on transiently transfected cells (UniProt O00220 24-468, limits assumed)
T5 construct: whole, on cells
T5 sequence (looked up): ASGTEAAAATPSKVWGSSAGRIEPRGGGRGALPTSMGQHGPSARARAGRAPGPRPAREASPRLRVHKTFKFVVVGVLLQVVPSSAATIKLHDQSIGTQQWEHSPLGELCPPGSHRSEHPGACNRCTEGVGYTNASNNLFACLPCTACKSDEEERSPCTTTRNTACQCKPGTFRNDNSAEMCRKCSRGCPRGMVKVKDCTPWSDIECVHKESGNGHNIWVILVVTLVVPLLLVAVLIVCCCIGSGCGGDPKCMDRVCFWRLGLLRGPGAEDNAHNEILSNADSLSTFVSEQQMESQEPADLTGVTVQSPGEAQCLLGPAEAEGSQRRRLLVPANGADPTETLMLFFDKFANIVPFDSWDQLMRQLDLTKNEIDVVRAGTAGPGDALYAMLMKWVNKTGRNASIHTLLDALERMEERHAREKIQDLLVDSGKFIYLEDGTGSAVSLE
Experimental: as §1

Measured: binding result

B1: FLAG-tagged soluble TNF-gamma-beta (aa 72-251) (ligand, human)
chain: DYKDDDDKLKGQEFAPSHQQVYAPLRADGDKPRAHLTVVRQTPTQHFKNQFPALHWEHELGLAFTKNRMNYTNKFLLIPESGDYFIYSQVTFRGMTSECSEIRQAGRPNKPDSITVVITKVTDSYPEPTQLLMGTKSVCEVGSNWFQPIYLGAMFSLQEGDKLMVNVSDISLVDYTKEDKTFFGAFLL
notes: also called FLAG-TNF-gamma-beta; FLAG-TL1β
no binding: all assays above
